This is an account of results in patent publication US20250114467A1 (SHANGHAI FUDAN ZHANGJIANG BIO PHARMACEUTICAL, published 2025).

In test [1] the target is T1, recombinant DLL3 protein (purchased from ACRO, DL3-H5255) (human, UniProt Q9NYJ7 27-479).
T1 construct: Bought; also called human DLL3 protein; hDLL3
T1 sequence (looked up): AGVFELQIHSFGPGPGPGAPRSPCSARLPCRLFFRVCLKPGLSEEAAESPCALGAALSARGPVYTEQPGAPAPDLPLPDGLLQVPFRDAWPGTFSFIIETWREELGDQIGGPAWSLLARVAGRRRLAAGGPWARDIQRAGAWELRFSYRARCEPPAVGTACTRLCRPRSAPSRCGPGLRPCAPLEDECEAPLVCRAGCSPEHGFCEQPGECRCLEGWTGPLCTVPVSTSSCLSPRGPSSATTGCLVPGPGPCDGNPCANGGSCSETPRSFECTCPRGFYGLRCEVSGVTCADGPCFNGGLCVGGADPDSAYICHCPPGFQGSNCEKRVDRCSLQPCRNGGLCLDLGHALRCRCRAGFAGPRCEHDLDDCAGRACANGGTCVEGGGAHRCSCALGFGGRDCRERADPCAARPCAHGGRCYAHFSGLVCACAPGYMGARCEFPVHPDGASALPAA
As to the kind of experiment: ELISA, plate-coated human DLL3 protein 1 µg/ml. An excerpt: Six 6-week-old SPF grade female Balb/C mice (purchased from Shanghai Jihui Laboratory Animal Care Co., Ltd.) were selected and randomly divided into two groups, A and B. They were immunized with recombinant DLL3 protein (purchased from ACRO, DL3-H5255) at two-week intervals. Freund's complete adjuvant was used for the first immunization and Freund's incomplete adjuvant was used for subsequent immunizations. On days 35 and 49, blood samples were collected from the mice via orbital bleeding, and the immune serum titers of the mice were detected using conventional methods of ELISA and Flow Cytometry (FACS). ELISA detection method: DLL3 protein was diluted with PBS to a concentration of 1 μg/ml. 100 μl/well was added to a 96-well ELISA plate and incubated overnight at 4° C. The next day, the supernatant was discarded, and each well was blocked with 200 μl of 2% milk in PBS for 2 hours. After discarding the blocking solution, the wells were washed 3 times with 200 μl of PBST (0.1% Tween20). The serum to be detected was pre-diluted 100 times as the starting concentration, followed by a 3-fold gradient dilution across 11 concentrations, with 100 μl added to each well of the ELISA plate. After incubating at room temperature for 1 hour, the supernatant was discarded and the wells were washed 5 times with 200 μl of PBST (0.1% Tween20). Then, 100 μl of HRP-labeled goat anti-mouse secondary antibody (Jackson, 1:10000) was added and incubated at room temperature for 1 hour. After discarding the supernatant, the wells were washed 7 times with 200 μl of PBST (0.1% Tween20). 100 μl of TMB chromogen solution was added to each well for 10 minutes. The reaction was terminated with 2M HCl, and absorbance value at 450 nm was read with a Microplate Reader (purchased from Biotek, Elx808).
For the hybridoma clones with good binding and internalization activities identified in Example 5, the heavy chain variable region sequences were synthesized and cloned into the pFUSEss-CHIg-hG1 vector (purchased from InvivoGen, catalog number pfusess-hchgl) comprising the amino acid sequence of the human antibody IgG1 heavy chain constant region by homologous recombination.
(ELISA stands for enzyme-linked immunosorbent assay.)

Test [2] deals with T2, human DLL3, His tag (acrobiosystems, DL3-H52H4) (human, UniProt Q9NYJ7 27-492).
T2 construct: Bought; also called human DLL3 protein; free DLL3; not shown: His tag
T2 sequence (looked up): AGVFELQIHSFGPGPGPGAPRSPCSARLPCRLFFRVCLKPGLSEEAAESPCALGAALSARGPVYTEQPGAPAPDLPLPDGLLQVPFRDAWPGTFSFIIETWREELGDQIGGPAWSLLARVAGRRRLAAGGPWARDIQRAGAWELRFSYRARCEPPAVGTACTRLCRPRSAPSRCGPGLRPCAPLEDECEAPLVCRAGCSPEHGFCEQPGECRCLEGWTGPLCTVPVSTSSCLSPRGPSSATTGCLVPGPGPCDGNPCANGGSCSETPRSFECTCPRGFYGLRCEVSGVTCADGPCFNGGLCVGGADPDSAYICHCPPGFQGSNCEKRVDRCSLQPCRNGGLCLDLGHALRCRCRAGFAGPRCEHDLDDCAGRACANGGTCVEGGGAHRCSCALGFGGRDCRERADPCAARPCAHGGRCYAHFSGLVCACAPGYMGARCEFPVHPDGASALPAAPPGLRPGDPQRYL
As to the kind of experiment: BLI (Octet 96e), antibody on sensor, DLL3-His 100-3.13 nM in solution. As to the method:
To assess the affinity of antibodies for human DLL3 protein, this study employed the BLI method to detect the binding kinetics curves of immobilized antibodies with free DLL3. The method was conducted according to the instrument's user manual (supplier: Fortebio, equipment model: Octet 96e). Briefly, AMC sensors were equilibrated for 60 s with Loading Buffer/Sample dilution buffer (1×PBS, pH7.4, with 0.1% BSA and 0.02% Tween-20) to obtain Baseline 1. The antibodies to be detected were diluted with Loading Buffer to a concentration of 10 ug/ml and bound to the equilibrated sensors, after which the sensors were re-equilibrated with Loading Buffer to obtain Baseline 2. The antibody-loaded sensors were then placed in human DLL3, His tag (supplier: acrobiosystems, catalog number: DL3-H52H4) diluted with Sample Dilution Buffer to concentrations ranging from 100 to 3.13 nM for 90 s to obtain the antibody-protein binding curve. Then, the sensors combined with antigen were placed in the Sample Dilution Buffer again and dissociated for 180 s, and the dissociation curve was obtained. The k-on and k-off values of the antibody-protein binding were calculated based on the binding and dissociation curves, and the KD values were calculated, with the results shown in Table 4.
(Biolayer interferometry detects binding as a change in optical thickness at a sensor tip.)

The target of test [3] is T3, human DLL4 (purchased from Acro, DL4-H5227) (human, UniProt Q9NR61 27-524).
T3 construct: Bought; also called hDLL4
T3 sequence (Q9NR61 27-524 limits assumed): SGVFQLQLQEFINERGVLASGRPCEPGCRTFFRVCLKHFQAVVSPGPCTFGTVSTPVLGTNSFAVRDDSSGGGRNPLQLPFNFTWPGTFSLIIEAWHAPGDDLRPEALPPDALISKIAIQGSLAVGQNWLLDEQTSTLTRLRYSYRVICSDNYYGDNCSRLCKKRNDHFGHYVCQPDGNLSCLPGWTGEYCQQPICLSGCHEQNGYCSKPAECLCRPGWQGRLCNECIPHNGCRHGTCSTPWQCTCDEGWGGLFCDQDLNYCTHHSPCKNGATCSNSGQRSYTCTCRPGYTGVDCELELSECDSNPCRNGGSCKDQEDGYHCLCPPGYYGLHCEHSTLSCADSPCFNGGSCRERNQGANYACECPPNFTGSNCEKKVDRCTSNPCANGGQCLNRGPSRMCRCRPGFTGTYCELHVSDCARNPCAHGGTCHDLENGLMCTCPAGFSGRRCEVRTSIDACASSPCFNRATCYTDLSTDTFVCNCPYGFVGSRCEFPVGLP
Put plainly: ELISA on plate-coated human DLL4 protein (1 µg/ml), HRP goat anti-human secondary, OD 450 nm [right panel]. As to the method: (§1) The chimeric antibodies obtained in Example 6 were evaluated for their binding abilities to human DLL1 (purchased from Acro, DL1-H52H8) and DLL4 (purchased from Acro, DL4-H5227) proteins using the ELISA method. The ELISA detection method involved diluting DLL1 and DLL4 proteins with PBS to a final concentration of 1 μg/ml and coating them onto 384-well ELISA plates (purchased from Corning, 3700) at 4° C. overnight. The next day, the supernatant in the plate wells was discarded, and the wells were blocked with 80 μl of 3% milk (dissolved in PBS) for 2 hours, followed by washing three times with 80 μl of PBST (0.1% Tween20). […] After washing with 80 μl of PBST (0.1% Tween20) for five times, 25 μl of HRP-labeled goat anti-human secondary antibody (Jackson, 1:10000) was added to each well and incubated at room temperature for 1 hour, discard the supernatant, and the wells were then washed seven times with 80 μl of PBST (0.1% Tween20). After adding 25 μl of TMB chromogen solution for 10 minutes, the reaction was terminated with 2M HCl, and the absorbance value at 450 nm was measured with a Microplate reader (purchased from Biotek, Elx808). […] To assess the cross-reactivity of the antibodies with mouse and monkey DLL3, mouse DLL3-expressing plasmid pCMV3-mDLL3 (purchased from Beijing Yiqiao, MG58052-UT) and monkey DLL3-expressing plasmid pCMV3-rheDLL3 (purchased from Beijing Yiqiao, CG90919-UT) were used to construct overexpressing cell lines. The construction of overexpressing cells was as described in Examples 2-3. The binding abilities of the chimeric antibodies to these cells were determined by flow cytometry to assess the cross-reactivity of the antibodies with different species.

The target of test [4] is T4, human DLL3 (hDLL3) on cells (human, UniProt Q9NYJ7 27-618).
T4 construct: whole, on cells; V5-tagged); also called DLL3 on SHP-77 cells (endogenous); hDLL3 on HEK293 cells
T4 sequence (looked up): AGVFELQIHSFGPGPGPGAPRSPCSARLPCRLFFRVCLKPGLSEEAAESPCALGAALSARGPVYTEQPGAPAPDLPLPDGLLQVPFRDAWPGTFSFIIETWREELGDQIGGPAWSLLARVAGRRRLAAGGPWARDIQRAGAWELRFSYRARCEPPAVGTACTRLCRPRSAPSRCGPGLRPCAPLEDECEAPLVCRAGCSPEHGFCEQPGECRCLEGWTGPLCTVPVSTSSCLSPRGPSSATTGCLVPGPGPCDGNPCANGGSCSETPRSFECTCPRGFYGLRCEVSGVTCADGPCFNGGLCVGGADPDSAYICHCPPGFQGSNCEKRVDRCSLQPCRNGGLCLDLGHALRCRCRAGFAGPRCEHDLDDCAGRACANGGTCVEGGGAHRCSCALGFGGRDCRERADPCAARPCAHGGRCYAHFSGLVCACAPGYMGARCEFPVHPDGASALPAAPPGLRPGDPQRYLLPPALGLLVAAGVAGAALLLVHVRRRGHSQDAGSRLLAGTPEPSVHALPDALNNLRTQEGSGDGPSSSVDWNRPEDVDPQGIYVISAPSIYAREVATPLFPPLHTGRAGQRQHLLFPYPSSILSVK
As to the kind of experiment: flow cytometry on SHP-77 cells, 1 µg/ml antibody, kept on ice (0 H of the internalization assay). As to the method: The SHP-77 cells were used to detect the internalization activity of the hybridoma antibodies obtained in Example 3-3 by using the FACS method described in Example 3-1. The detecting method is briefly described as follows: Six aliquots of 5×10⁵ SHP-77 cells each were prepared in a 96-well V-bottom plate and centrifuged at 1500 r/min for 1 minute, after which the supernatant was discarded. 1 μg/ml of the saturated antibody to be detected was added to each well (200 μL per well) and incubated on ice for 30 minutes. Then, 150 μL of PBS was added to each well, followed by centrifugation at 1500 r/min for 1 minute, and the supernatant was discarded. This step was repeated four times. The cells were resuspended in 200 μl of PBS, and one aliquot was incubated at 37° C. for various durations: 5 hours, 3 hours, 1 hour, 0.5 hours, and 15 minutes. The remaining aliquot was kept on ice. After incubation, all samples were centrifuged at 4° C., 1500 r/min for 1 minute, and the supernatant was discarded. APC-labeled goat anti-mouse IgG (Jackson, catalog number 109-605-098, diluted 1:800 in PBS) was added to each well (50 μL per well) and incubated on ice for 30 minutes. The cells were then washed four times by resuspending in 150 μL of PBS, followed by centrifugation at 1500 r/min for 1 minute and discarding the supernatant. Finally, the cells were resuspended in 100 μL of PBS and analyzed using a CytoFLEX flow cytometer (purchased from Beckman).
Background: In flow cytometry, cells or beads pass a laser one at a time.

The target in test [5] is T5, human DLL1 (purchased from Acro, DL1-H52H8) (human, UniProt O00548 18-540).
T5 construct: Bought; also called hDLL1
T5 sequence (looked up): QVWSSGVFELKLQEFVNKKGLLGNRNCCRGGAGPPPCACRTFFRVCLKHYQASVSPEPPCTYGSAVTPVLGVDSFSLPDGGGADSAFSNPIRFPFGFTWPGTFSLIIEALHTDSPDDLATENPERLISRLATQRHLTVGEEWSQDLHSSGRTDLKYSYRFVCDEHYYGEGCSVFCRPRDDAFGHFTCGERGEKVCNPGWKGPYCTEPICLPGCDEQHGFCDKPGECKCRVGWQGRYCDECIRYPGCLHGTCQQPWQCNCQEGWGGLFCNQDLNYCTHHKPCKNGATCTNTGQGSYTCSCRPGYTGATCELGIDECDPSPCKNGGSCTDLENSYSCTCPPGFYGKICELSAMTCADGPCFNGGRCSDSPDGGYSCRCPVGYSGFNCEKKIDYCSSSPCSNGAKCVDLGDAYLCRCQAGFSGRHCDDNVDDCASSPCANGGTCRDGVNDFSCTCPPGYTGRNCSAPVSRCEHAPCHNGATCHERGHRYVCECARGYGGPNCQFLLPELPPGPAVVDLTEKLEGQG
Put plainly: ELISA on plate-coated human DLL1 protein (1 µg/ml), HRP goat anti-human secondary, OD 450 nm [left panel]. On the procedure:
as §1

B1: ch36H10 (antibody, human IgG1, kappa, V domains shown)
VH: EVQFQQSGPELVKPGASVKISCKASGYTFTDYNIHWVRQSQGKSLEWIGLIYPFNGGIVYNQKFKSKATLTVDNSSTSAYMELRSLSSEDSAVYFCARLNWEGYWGQGSTLIVSS
VL: DIKMTQSPSSIYAFLGERVTITCKASQDINSYLSWFQQKPGKSPKTLIYRANRLVGGVPSRFSGSGSGQDYSLTISSLEYEDVGDYYCLQYAEFPYTFGGGTKLEIKR
notes: Chimeric: murine variable regions on human IgG1 heavy and kappa light constant regions; also called chimeric antibody 36H10
What is called EC50 is the concentration that produces a half-maximal response. For orientation: Kd means the equilibrium constant for the complex coming apart. A lower Kd goes with tighter binding. For orientation: koff means the rate constant with which the complex falls apart. A higher koff goes with fast dissociation. As a reminder, the kon is the rate constant with which the complex forms. A low value points to slower complex formation. Consider B1, for which the EC50 in test [1] worked out at 0.0159 µg/mL. Further, in test [2], binding was characterised by a dissociation constant (Kd) of 99.1 pM, the koff stood at 0.000168 s⁻¹ and the kon was 1.69e+06 M⁻¹ s⁻¹. For the same molecule, the binding result in test [3] is “no binding (tested: 20 µg/ml)”.

B2: 36H10 (antibody, V domains shown)
VH: EVQFQQSGPELVKPGASVKISCKASGYTFTDYNIHWVRQSQGKSLEWIGLIYPFNGGIVYNQKFKSKATLTVDNSSTSAYMELRSLSSEDSAVYFCARLNWEGYWGQGSTLIVSS
VL: DIKMTQSPSSIYAFLGERVTITCKASQDINSYLSWFQQKPGKSPKTLIYRANRLVGGVPSRFSGSGSGQDYSLTISSLEYEDVGDYYCLQYAEFPYTFGGGTKLEIK
notes: Murine hybridoma monoclonal antibody; also called hybridoma antibody clone 36H10
B2: in test [4], the “fluorescence value at 0 H” value came out at 36000.

B3: FDA031 (antibody, human IgG1, kappa, V domains shown)
VH: QVQLVQSGAEVKKPGASVKVSCKASGYTFTRYWIHWIRQAPGQGLEWMGYINPTTVYTEFNQNFKDRVTMTRDTSTSTVYMELSSLRSEDTAVYYCARGGSNFFDYWGQGTTVTVSS
VL: AIQLTQSPSSLSASVGDRVTITCRASENIYYNLAWYQQKPGKAPKLLIYTANSLEDGVPSRFSGSGSGTDFTLTISSLQPEDFATYFCKQAYDVPPTFGGGTKLEIKR
notes: also called anti-DLL3 antibody FDA031
Turning to B3, the EC50 in test [1] was 0.0233 µg/mL. Also, the binding result in test [5] is given as “no binding (tested: 20 µg/ml)”.
